# Reference: publication PMC7072329 (Biomolecules, 2020)
# Where no end group is shown, it is not given here. [ ]: non-standard residue; d: D form. The star is where a group is joined. Kyn = Nc1ccccc1C(=O)C[C@H](N)C(=O)O; NMeF = CN[C@@H](Cc1ccccc1)C(=O)O; NHCH2CH2OH = OCCN*
# Experiments:
# δ-opioid receptor = biological target: T1, δ-opioid receptor (rat (endogenous in rat brain), UniProt P33533 1-372); assay: radioligand binding; conditions: one partner purified
# T1 construct: δ-opioid receptor, rat (Wistar), endogenous in brain membrane homogenate; defined by displacement of [^3H]Ile^5,6Delt II; In membranes, not on intact cells; also called DOR; source: endogenous, rat brain membrane homogenate
# T1 sequence (P33533 whole entry, stated change not applied): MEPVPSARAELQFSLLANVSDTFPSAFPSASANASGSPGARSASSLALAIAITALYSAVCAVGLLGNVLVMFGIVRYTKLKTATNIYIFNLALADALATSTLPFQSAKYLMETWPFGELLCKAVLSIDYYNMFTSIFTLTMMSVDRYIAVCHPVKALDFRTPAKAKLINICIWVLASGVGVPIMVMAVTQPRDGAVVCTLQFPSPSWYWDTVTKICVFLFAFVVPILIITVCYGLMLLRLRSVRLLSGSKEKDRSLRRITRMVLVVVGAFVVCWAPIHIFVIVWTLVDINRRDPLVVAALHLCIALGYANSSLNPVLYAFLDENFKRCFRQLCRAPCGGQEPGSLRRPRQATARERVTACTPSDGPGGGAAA
# κ-opioid receptor = biological target: T2, κ-opioid receptor (guinea pig (endogenous in guinea pig …, UniProt P41144 1-380)); assay: radioligand binding; displacement of [^3H]HS665 from guinea pig brain membrane homogenate by unlabelled ligand (10^-10 to 10^-5 M); 50 mM Tris-HCl pH 7.4, 25 °C, 30 min; non-specific binding with 10 μM HS665; IC50 converted into Ki by Cheng-Prusoff; conditions: one partner purified
# T2 construct: κ-opioid receptor, guinea pig, endogenous in brain membrane homogenate; defined by displacement of [^3H]HS665; In membranes, not on intact cells; also called KOR; k-opioid receptor; source: endogenous, guinea pig brain membrane homogenate
# T2 sequence (P41144 whole entry): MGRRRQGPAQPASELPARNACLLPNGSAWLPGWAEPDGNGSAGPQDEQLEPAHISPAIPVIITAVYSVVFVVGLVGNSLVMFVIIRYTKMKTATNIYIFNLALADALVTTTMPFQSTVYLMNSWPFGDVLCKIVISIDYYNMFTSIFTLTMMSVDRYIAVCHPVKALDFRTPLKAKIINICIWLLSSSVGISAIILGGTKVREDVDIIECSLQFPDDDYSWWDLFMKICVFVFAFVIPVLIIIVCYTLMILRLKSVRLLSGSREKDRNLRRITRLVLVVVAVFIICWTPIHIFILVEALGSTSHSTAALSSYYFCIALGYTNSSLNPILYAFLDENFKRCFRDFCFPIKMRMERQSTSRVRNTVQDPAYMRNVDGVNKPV
# μ-opioid receptor [1] = biological target: T3, μ-opioid receptor (rat (endogenous in rat brain), UniProt P33535 1-398); assay: radioligand binding; displacement of [^3H]DAMGO from rat brain membrane homogenate by unlabelled ligand (10^-10 to 10^-5 M); 50 mM Tris-HCl pH 7.4, 35 °C, 45 min; non-specific binding with 10 μM naloxone; IC50 converted into Ki by Cheng-Prusoff, one site competition fit; conditions: one partner purified
# T3 construct: μ-opioid receptor, rat (Wistar), endogenous in brain membrane homogenate; defined by displacement of [^3H]DAMGO; In membranes, not on intact cells; also called MOR; µ-opioid receptor; source: endogenous, rat brain membrane homogenate
# T3 sequence (P33535 whole entry): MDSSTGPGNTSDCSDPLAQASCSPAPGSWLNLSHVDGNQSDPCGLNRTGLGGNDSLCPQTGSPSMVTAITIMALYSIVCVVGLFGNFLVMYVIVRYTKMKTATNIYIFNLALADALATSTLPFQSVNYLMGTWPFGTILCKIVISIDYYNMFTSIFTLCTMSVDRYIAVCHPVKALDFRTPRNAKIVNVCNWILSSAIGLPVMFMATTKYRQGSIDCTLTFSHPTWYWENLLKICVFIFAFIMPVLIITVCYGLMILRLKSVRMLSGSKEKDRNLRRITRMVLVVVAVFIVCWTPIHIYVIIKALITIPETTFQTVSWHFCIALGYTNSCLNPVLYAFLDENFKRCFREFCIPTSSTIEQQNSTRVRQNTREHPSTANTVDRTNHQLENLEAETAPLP
# μ-opioid receptor [2] = biological target: T3, μ-opioid receptor; assay: cell-based or functional assay
# μ-opioid receptor [3] = biological target: T3, μ-opioid receptor; assay: cell-based or functional assay; remark: listed apart in the source
Binder,Ki (δ-opioid receptor),Ki (κ-opioid receptor),Ki (μ-opioid receptor [1]),"Log EC50 of [^35S]GTPγS binding (G-protein activation), rat brain membrane homogenates (μ-opioid receptor [2])",logEC50 of [^35S]GTPγS binding as told in the conclusions (differs from Table 2) (μ-opioid receptor [3])
"Y[dA]G[NMeF][NHCH2CH2OH]-{kynurenic acid (ester on OH)} (the order of couplings in Scheme 1 (ethanolamine-kyna ester, Boc-N-Me-Phe, Boc-Gly, Boc-DAla, Boc-Tyr) agrees; the drawn structure is in Scheme 1; also called kyna-containing peptide; source: synthetic peptide (solution phase synthesis, RP-HPLC purified, TFA salt)) [Peptide KA1]",555 nM,> 10000 nM,,,
YP[Kyn]F-NH2 [Peptide K2],,,1.39 nM,,
Y[dA]GF[Kyn]-OH [Peptide K5],94.4 nM,> 10000 nM,9.11 nM,,
Y[dA]GF[Kyn]-NH2 [Peptide K6],32.5 nM,128 nM,1.84 nM,-5.98,-5.6
YPF[Kyn]-NH2 (N-terminus assumed; SMILES NC(=O)[C@H](CC(=O)c1ccccc1N)NC(=O)[C@H](Cc1ccccc1)NC(=O)[C@@H]1CCCN1C(=O)[C@@H](N)Cc1ccc(O)cc1) [Peptide K3],159 nM,> 10000 nM,197 nM,,
Y[dA]GF[Kyn]-OMe [Peptide K4],31.2 nM,> 10000 nM,2.29 nM,,
